Measurements published in publication PMC2175355.

Target: RNA polymerase holoenzyme (sigma70);RapA (native) (Escherichia coli;Escherichia coli) (UniProt P0A7Z4+P0A8V2+P0A8T7+P0A800+P00579+P60240)
Assay: EMSA

55-nt RNA with two stem-loops and rA18 tail
binding signal (fold affinity vs holoenzyme without RapA): > 20
